# Data published in paper PMC4996945, “Crosstalk between MSH2–MSH3 and polβ promotes trinucleotide repeat expansion during base excision repair”.
# B1: CAG-duplex (80) with one 8-oxo-G (dsDNA)
# DNA 1: CAAGCACGTTGACTACCGTCCAGCAGCAGCAGCAGCAGCAGCAGCAGCAGCAGCAGCAGTTTGAGGCAGAGTCCGAACAC
# DNA 2: GTGTTCGGACTCTGCCTCAAACTGCTGCTGCTGCTGCTGCTGCTGCTGCTGCTGCTGCTGGACGGTAGTCAACGTGCTTG
# modifications: one 8-oxo-G (stated position 17, exact G not marked in text); complement not given
# Target: MSH2;MSH3 (Homo sapiens;Homo sapiens, UniProt P43246;P20585 1-934;1-1137, |)
# Experiment: gel filtration; 1:1:1 OGG1, MSH2-MSH3, DNA; MSH2-MSH3-DNA peak; 10 mM HEPES pH 8.1, 110 mM NaCl, 1 mM DTT, 0.1 mg/ml BSA, 10% glycerol, 0.25% inositol, 5 mM Mg2+, 2 mM ATP, 2 mM ADP; on ice (EMSA 10 min, gel at 4 °C; footprint binding 15 min, DNase I at 37 °C); 25 nM DNA
# Settings: protein: recombinant;recombinant; tags: ;His; copies: 1;1
binder,measurement,value
B1,binding result,binds
